The results in this text go back to US20160324962A1, “COMPOSITIONS AND METHODS FOR TREATING SARCOMA” (MEDIMMUNE, LLC, priority 2013, published 2016).

One data set relates to Akt phosphorylation. The data set can be described thus: pAKT assay in sarcoma cells (MSD). The settings on record: RD-ES, TC-71, SK-ES-1, and SJSA-1 cells. It counts as cell-based. How it is done:
(§1) When exogenous IGF-1 or IGF-2 was added to cells, there was an induction of phosphorylation of IGF-1R and IR-A in all cells examined.
(§2) The sarcoma lines were cultured overnight in complete medium. The following day, medium containing 0.1% charcoal stripped fetal bovine serum (FBS) was added to the cultures and the cultures incubated overnight. The next day, cells were treated with various treatments for 5 minutes. Media was removed; cells were washed and lysed with 1.0% Triton X lysis buffer with protease and phosphatase inhibitors. Approximately 8-20 μg of total protein was loaded on MSD 96-Well MULTI-SPOT plates and the level of total and phosphorylated IGF-1R, IR-A and IRS-1 protein was determined using the Insulin Signaling Panel (total protein) and Insulin Signaling Panel (phosphoprotein) Whole Cell Lysate kits according to the manufacturers protocol. The level of total and phosphorylated AKT was determined using the Phospho (Ser473)/Total AKT Assay Whole Cell Lysate kit according to manufacturer's standard protocol.

The subject of data set [1] is engineered NIH3T3 and human tumor cell lines. The data set can be described thus: In vitro growth of engineered and tumor cell lines. Type of data set: cell-based. The text has this:
MEDI 573 selectively binds to human insulin-like growth factor (hIGF)-I and hIGF-2 and […]. MEDI-573 targets the IGF-1 and IGF-2 ligands and thereby inhibits IGF-mediated signal transduction. […] Furthermore, MEDI-573 has potential to achieve this without perturbing glucose homeostasis, which has been an adverse effect observed with investigational agents that target IGF 1R. The results of in vitro studies have shown that MEDI-573 inhibited both IGF-1 and IGF-2-stimulated phosphorylation of IGF 1R and that of downstream signaling proteins including Akt and MAPK in a number of engineered mouse embryonic fibroblast NIH-3T3 cell lines transfected to express human IGF-1R and either human IGF-1/-2. Furthermore, MEDI-573 inhibited autocrine phosphorylation of these signaling molecules.

Data set [2] relates to RD-ES (Ewing's sarcoma) xenografts. The data set can be described thus: Xenograft efficacy study in mice. It counts as in vivo. The text has this: (§3) Although proliferation of SK-ES-1 and SJCRH30 cells was inhibited by MEDI-573 in vitro in the absence of exogenous IGFs, the in vivo growth of these two models was not effected by MEDI-573 treatment.
(§4) The combination treatments were tolerated as no significant body weight loss was observed (FIG. 17B).
For in vivo efficacy studies, five million sarcoma cells in 50% matrigel were inoculated subcutaneously into each female athymic nude mice. When tumors reach approximately 150-200 mm^3, mice were randomly assigned into groups (10 mice per group). MEDI-573 was administrated intraperitoneally twice per week at indicated doses. The dose regimen for AZD2014 was oral once every day, for rapamycin was intraperitoneal injection every 3 days. Tumor volumes were measured twice weekly with calipers. Tumor growth inhibition was calculated on the last day of study relative to the initial and final mean tumor volume of the control group.

Data set [3] in a line: Body weight / tolerability in xenograft mice. Type of data set: in vivo. The settings on record: MEDI-573 alone.
Source text: as §3, §4

Another data set has as its target T1, human IGF-1 (Homo sapiens, UniProt P05019).
T1 construct: purchased R&D Systems (Minneapolis, Minn.)
As to the kind of experiment: IGF levels in tumor and plasma after injection of human IGF. It counts as in vivo, mice. The settings on record: RD-ES tumor lysates and plasma, intraperitoneal pretreatment for 6 hours, 15 min after IGF-1 injection. How it is done: (§5) Thus, human IGF-1 and IGF-2 (IGF-1/-2) were injected into mice in an attempt to understand the role of IGF ligands in driving tumor growth when delivered by endocrine or paracrine secretion, and the effect of MEDI-573 in inhibiting this function. Fifteen minutes after IGF-1 or IGF-2 injection, high levels of IGF-1 or IGF-2 were detected both in RD-ES tumor and plasma.
(§6) For in vivo mechanism of action (MOA) studies, when tumors reached approximately 400 mm^3, a single dose of MEDI-573 was given. Tumor and plasma samples were collected 4 hr after dosing to assess the effect of MEDI-573 on autocrine IGF signaling. In another set of mice, 6 hr after MEDI-573 dosing, human IGF-1 or IGF-2 was injected by tail-vein. Tumor and plasma samples were collected 15 min after IGFs injection to assess the effect of MEDI-573 on IGF-1/-2 induced signaling.

The next data set has as its target T2, human IGF-2 (Homo sapiens, UniProt P01344).
T2 construct: purchased R&D Systems (Minneapolis, Minn.)
The data set is described as above. It counts as in vivo, mice. The settings on record: RD-ES tumor lysates and plasma, intraperitoneal pretreatment for 6 hours, 15 min after IGF-2 injection. How it is done: as §5, §6

In a further data set the test system is IGF-1R phosphorylation. The data set can be described thus: pIGF-1R assay in sarcoma cells (MSD). Type of data set: cell-based. How it is done: as §1, §2

T1 sequence (P05019 49-118 limits assumed): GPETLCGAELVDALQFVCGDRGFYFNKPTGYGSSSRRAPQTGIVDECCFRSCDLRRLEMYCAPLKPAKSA
T2 sequence (P01344 25-91 limits assumed): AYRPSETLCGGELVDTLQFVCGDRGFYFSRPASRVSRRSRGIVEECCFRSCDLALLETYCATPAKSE

B1: MEDI-573: fully human monoclonal IgG2 lambda antibody that binds IGF-2 with cross reactivity to IGF-1; hybridoma 7.159.2, ATCC PTA-7424 (antibody)
heavy: QVQLVQSGAEVKKPGASVKVSCKASGYTFTSYDINWVRQATGQGLEWMGWMNPNSGNTGYAQKFQGRVTMTRNTSISTAYMELSSLRSEDTAVYYCARDPYYYYYGMDVWGQGTTVTVSSASTKGPSVFPLAPCSRSTSESTAALGCLVKDYFPEPVTVSWNSGALTSGVHTFPAVLQSSGLYSLSSVVTVPSSNFGTQTYTCNVDHKPSNTKVDKTVERKCCVECPPCPAPPVAGPSVFLFPPKPKDTLMISRTPEVTCVVVDVSHEDPEVQFNWYVDGVEVHNAKTKPREEQFNSTFRVVSVLTVVHQDWLNGKEYKCKVSNKGLPAPIEKTISKTKGQPREPQVYTLPPSREEMTKNQVSLTCLVKGFYPSDIAVEWESNGQPENNYKTTPPMLDSDGSFFLYSKLTVDKSRWQQGNVFSCSVMHEALHNHYTQKSLSLSPGK
light: QSVLTQPPSVSAAPGQKVTISCSGSSSNIENNHVSWYQQLPGTAPKLLIYDNNKRPSGIPDRFSGSKSGTSATLGITGLQTGDEADYYCETWDTSLSAGRVFGGGTKLTVLGQPKAAPSVTLFPPSSEELQANKATLVCLISDFYPGAVTVAWKADSSPVKAGVETTTPSKQSNNKYAASSYLSLTPEQWKSHRSYSCQVTHEGSTVEKTVAPTECS
With B1, in the data set with Akt phosphorylation, the “IGF-1 and IGF-2 stimulated phosphorylation of Akt” value is “blocks this effect”. In the data set on Akt phosphorylation, the “autophosphorylation of Akt” value is on record as “inhibited autophosphorylation”. In addition, in data set [1], the growth in vitro result was “effectively inhibited the growth”. The tumor growth inhibition worked out at 52% in data set [2] (RD-ES xenograft model, AZD2014 combination study (FIG. 16A)); 59% in data set [2] (RD-ES xenograft model, rapamycin combination study (FIG. 17A)); 25% in data set [2] (RD-ES xenografts, 10 mg/kg twice weekly intraperitoneally); 44% in data set [2] (RD-ES xenografts, 30 mg/kg twice weekly intraperitoneally); 52% in data set [2] (RD-ES xenografts, 60 mg/kg twice weekly intraperitoneally). Moreover, in data set [3], the body weight result is reported as “no loss of body weight was observed”. The “reduction of IGF-1 levels” value with human IGF-1 is reported as “approximately 50%”. Further, the “reduction of IGF-2 levels” value in the data set with human IGF-2 is recorded as “almost completely”. For the same molecule, in the data set with IGF-1R phosphorylation (RD-ES, TC-71, SK-ES-1, and SJSA-1 cells), the “autophosphorylation of IGF-1R” value was “inhibited autophosphorylation”. In addition, the “IGF-1/-2-induced activation of IGF-1R” value in the data set with IGF-1R phosphorylation (pretreatment with MEDI-573, exogenous IGF-1 or IGF-2) is “inhibited”.
